Measured values reported in paper PMC4382335.
Values belong to the substance of their own block, whether it stands above or below them.

How the values were obtained:
[1] = target: papain from papaia latex (papaia (from papaia latex)) (UniProt P00784)
[2] = target: papain from papaia latex (papaia (from papaia latex)) (UniProt P00784); remark: listed apart in the source
[3] = target: papain from papaia latex (papaia (from papaia latex)) (UniProt P00784); remark: listed apart in the source
[4] = target: TcCYS4-His-tag, recombinant cystatin TcCYS4 from Theobroma cacao (Theobroma cacao); assay: SEC; as a2, samples treated in the range from 55 to 75°C for 10 min; 20 uM, 100 mM phosphate buffer pH 6, 150 mM NaCl, Superdex 75 5/150
[5] = target: TcCYS4-His-tag, recombinant cystatin TcCYS4 from Theobroma cacao (Theobroma cacao); assay: SEC; TcCYS4 at 20 uM in 100 mM phosphate buffer pH 6, 150 mM NaCl, treated at different temperatures for 10 min (all heat treatments), Superdex 75 5/150, LMW standards
[6] = target: papain from papaia latex (papaia (from papaia latex)) (UniProt P00784); remark: listed apart in the source
[7] = target: papain from papaia latex (papaia (from papaia latex)) (UniProt P00784); remark: listed apart in the source

UniProt P00784, sequence (P00784 134-345): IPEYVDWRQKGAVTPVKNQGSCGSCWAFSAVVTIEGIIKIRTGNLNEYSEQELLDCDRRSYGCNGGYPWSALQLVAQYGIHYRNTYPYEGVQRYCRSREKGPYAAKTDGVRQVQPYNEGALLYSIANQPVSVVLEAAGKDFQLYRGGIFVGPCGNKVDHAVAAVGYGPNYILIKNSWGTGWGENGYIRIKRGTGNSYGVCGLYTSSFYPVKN

papain inhibitory activity after treatment of the cystatin for 10 min at different temperatures up to 90°C; 70% of activity at 65°C [1]: > 100%
residual activity of papain with TcCYS4 treated at 65°C for 0 to 600 s (plateau after 300 s) [2]: 60%
percentage of inhibition of papain at pH values of the reaction medium from 2 to 10.5 (20% at pH 3, 70% at pH 3.5, about 90% from pH 4 to 9, about 80% at pH 10.5) [3]: 90%
stoichiometry N [4]: 3
stoichiometry N [5]: 2
Substance: TcCYS4-His-tag, recombinant cystatin TcCYS4 from Theobroma cacao (natural protein)

papain inhibitory activity after treatment of the cystatin for 10 min at different temperatures up to 90°C; around 52% at 65°C [6]: 65%
Substance: recombinant cystatin TcCYS2 from Theobroma cacao (natural protein)

papain inhibition rate after treatment of the cystatin for 10 min at temperatures up to 90°C [7]: 100%
Substance: recombinant cystatin TcCYS3 from Theobroma cacao (natural protein)
